Results on 31 molecules are retold here after patent US20230125550A1 (ARCELLX, published 2023).

First the molecules themselves.
T1: AFP p26 (human, UniProt P02771 381-609)
T1 construct: The construct used is not described
T1 sequence: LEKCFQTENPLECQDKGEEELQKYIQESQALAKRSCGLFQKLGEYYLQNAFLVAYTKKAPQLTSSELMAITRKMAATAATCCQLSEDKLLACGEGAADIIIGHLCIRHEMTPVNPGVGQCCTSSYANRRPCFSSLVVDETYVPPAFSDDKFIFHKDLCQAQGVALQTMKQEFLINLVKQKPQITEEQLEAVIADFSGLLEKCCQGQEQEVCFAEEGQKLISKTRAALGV

B1: SEQ ID NO 835 (designed binder)
chain: MGSWKLFKYELAWIKWRLEALGGSEAELADFEASIAQFEKYLQTYKGKGNPEVEALRKEAAAIRDELQAYRHN
B2: SEQ ID NO 836 (designed binder)
chain: MGSWYLFKNELAWIKWRLEALGGSEAELADFEMVIAMFEDHLQEYKGKGNPEVEALRKEAAAIRDELQAYRHN
B3: SEQ ID NO 847 (designed binder)
chain: MGSWWVFKKTLAEIKWTLEALGGSEAELAYFEAEIAFFEFILQQYKGKGNPEVEALRKEAAAIRDELQAYRHN
B4: SEQ ID NO 825 (designed binder)
chain: MGSWVLFKDYLADIKHYLEALGGSEAELANFEHLIANFEGDLQTYKGKGNPEVEALRKEAAAIRDELQAYRHN
B5: SEQ ID NO 823 (designed binder)
chain: MGSWAYFKGQLAYIKSGLEALGGSEAELAYFELRIAYFEHWLQNYKGKGNPEVEALRKEAAAIRDELQAYRHN
B6: SEQ ID NO 844 (designed binder)
chain: MGSWVRFKTELAYIKESLEALGGSEAELAMFESEIAIFEHSLQTYKGKGNPEVEALRKEAAAIRDELQAYRHN
B7: SEQ ID NO 845 (designed binder)
chain: MGSWYLFKTELAAIKYRLEALGGSEAELASFEYEIAWFEHILQFYKGKGNPEVEALRKEAAAIRDELQAYRHN
B8: SEQ ID NO 855 (designed binder)
chain: MGSWTHFKEDLAHIKDRLEALGGSEAELAAFELDIAWFEFMLQYYKGKGNPEVEALRKEAAAIRDELQAYRHN
B9: SEQ ID NO 848 (designed binder)
chain: MGSWVYFKDHLAEIKSQLEALGGSEAELALFEYDIAWFEFILQYYKGKGNPEVEALRKEAAAIRDELQAYRHN
B10: SEQ ID NO 843 (designed binder)
chain: MGSWYIFKQELASIKLSLEALGGSEAELAHFEAEIAWFEWWLQWYKGKGNPEVEALRKEAAAIRDELQAYRHN
B11: SEQ ID NO 819 (designed binder)
chain: MGSWHHFKYFLADIKSILEALGGSEAELAIFEVQIAYFEDLLQSYKGKGNPEVEALRKEAAAIRDELQAYRHN
B12: SEQ ID NO 820 (designed binder)
chain: MGSWLYFKYNLAVIKHWLEALGGSEAELAIFEMSIADFEYELQWYKGKGNPEVEALRKEAAAIRDELQAYRHN
B13: SEQ ID NO 826 (designed binder)
chain: MGSWSLFKHRLANIKVYLEALGGSEAELADFETFIAYFEKDLQEYKGKGNPEVEALRKEAAAIRDELQAYRHN
B14: SEQ ID NO 821 (designed binder)
chain: MGSWFYFKYELAWIKHWLEALGGSEAELASFETHIAFFEHQLQYYKGKGNPEVEALRKEAAAIRDELQAYRHN
B15: SEQ ID NO 841 (designed binder)
chain: MGSWYFFKSRLAYIKVYLEALGGSEAELAGFEWEIAHFEEWLQRYKGKGNPEVEALRKEAAAIRDELQAYRHN
B16: SEQ ID NO 842 (designed binder)
chain: MGSWYIFKSELAWIKWYLEALGGSEAELANFEVEIATFETWLQGYKGKGNPEVEALRKEAAAIRDELQAYRHN
B17: SEQ ID NO 837 (designed binder)
chain: MGSWVYFKAHLAFIKWELEALGGSEAELANFESTIAEFEKYLQVYKGKGNPEVEALRKEAAAIRDELQAYRHN
B18: SEQ ID NO 846 (designed binder)
chain: MGSWYWFKYELAEIKWHLEALGGSEAELAHFEHSIAVFESQLQQYKGKGNPEVEALRKEAAAIRDELQAYRHN
B19: SEQ ID NO 824 (designed binder)
chain: MGSWENFKDTLAWIKEYLEALGGSEAELAGFEHRIAIFEHYLQYYKGKGNPEVEALRKEAAAIRDELQAYRHN
B20: SEQ ID NO 839 (designed binder)
chain: MGSWTLFKWDLAFIKWQLEALGGSEAELAWFEYEIAAFEDSLQNYKGKGNPEVEALRKEAAAIRDELQAYRHN
B21: SEQ ID NO 840 (designed binder)
chain: MGSWILFKEDLAFIKWQLEALGGSEAELAWFETTIANFESDLQKYKGKGNPEVEALRKEAAAIRDELQAYRHN
B22: SEQ ID NO 829 (designed binder)
chain: MGSWVLFKQELAWIKWLLEALGGSEAELAAFEEQIARFEHDLQKYKGKGNPEVEALRKEAAAIRDELQAYRHN
B23: SEQ ID NO 831 (designed binder)
chain: MGSWFLFKSELAWIKWRLEALGGSEAELAYFEYQIAEFEFWLQSYKGKGNPEVEALRKEAAAIRDELQAYRHN
B24: SEQ ID NO 832 (designed binder)
chain: MGSWLLFKSELAWIKWYLEALGGSEAELAEFEWNIAEFEKNLQKYKGKGNPEVEALRKEAAAIRDELQAYRHN
B25: SEQ ID NO 833 (designed binder)
chain: MGSWLLFKSDLAWIKWRLEALGGSEAELAEFEESIAMFEHWLQEYKGKGNPEVEALRKEAAAIRDELQAYRHN
B26: SEQ ID NO 830 (designed binder)
chain: MGSWVLFKQELAWIKWYLEALGGSEAELAAFEWEIAAFEQRLQIYKGKGNPEVEALRKEAAAIRDELQAYRHN
B27: SEQ ID NO 834 (designed binder)
chain: MGSWLYFKSDLAWIKWRLEALGGSEAELADFEEAIAEFEQALQIYKGKGNPEVEALRKEAAAIRDELQAYRHN
B28: SEQ ID NO 827 (designed binder)
chain: MGSWEHFKVELAGIKAYLEALGGSEAELALFEWAIADFESILQDYKGKGNPEVEALRKEAAAIRDELQAYRHN
B29: SEQ ID NO 828 (designed binder)
chain: MGSWIYFKDELAGIKKYLEALGGSEAELAMFEVAIADFEAILQKYKGKGNPEVEALRKEAAAIRDELQAYRHN
B30: SEQ ID NO 822 (designed binder)
chain: MGSWADFKWTLAYIKHRLEALGGSEAELAFFEMEIAYFEQSLQNYKGKGNPEVEALRKEAAAIRDELQAYRHN
B31: SEQ ID NO 838 (designed binder)
chain: MGSWMYFKSHLAWIKWELEALGGSEAELAFFEDNIAQFEYWLQLYKGKGNPEVEALRKEAAAIRDELQAYRHN

In the assay the target is T1, AFP p26. The experiment in a line: phage ELISA, A450 target/A450 IgG1-Fc. The procedure, abridged:
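The ELISA ratio divides target absorbance by IgG1-Fc absorbance and averages this over all screened wells holding a given clone. Phage came from phagemid colonies picked from panning output and were rescued with VCSM13 helper phage in 96-well format. After coating with 1.3 microg/ml goat anti-human IgG1-Fc antibody, wells were loaded with 5 nM recombinant human target or IgG1-Fc, then with 50 microl phage diluted 5× in ELISA blocking buffer, and bound phage were read at 450 nm using HRP-conjugated anti-M13 antibody.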
A general note: An ELISA detects its analyte on a solid surface through an enzyme-linked reagent.
Molecule B1 gave an ELISA_avg of 23.4 ratio.
Regarding B2, the ELISA_avg stood at 31.1 ratio.
Then B3, with 18.6 ratio.
The figure for B4 is 13.8 ratio; for B5 it is 11.4 ratio.
Molecule B6 gave an ELISA_avg of 20.5 ratio.
Molecule B7 had an ELISA_avg of 20.1 ratio.
Then B8, with 30.4 ratio; and B9, with 22.1 ratio.
Then B10, with 19.4 ratio; and B11, with 8 ratio; and B12, with 13.3 ratio.
Then B13, with 19.6 ratio; and B14, with 13.7 ratio.
B15 yielded an ELISA_avg of 30.1 ratio.
Consider B16, for which the ELISA_avg is 29.6 ratio.
For B17, the ELISA_avg came to 20.8 ratio.
The figure for B18 is 21.5 ratio.
B19: the ELISA_avg worked out at 19.2 ratio.
Then B20, with 12.1 ratio.
In the case of B21, the ELISA_avg was 23.3 ratio.
For the molecule B22, the ELISA_avg came out at 29.5 ratio.
The figure for B23 is 25.8 ratio; for B24 it is 25.7 ratio; for B25 it is 33.3 ratio.
Then B26, with 22.5 ratio; and B27, with 21.2 ratio.
Then B28, with 18.1 ratio; and B29, with 15.9 ratio.
Regarding B30, the ELISA_avg amounted to 31.5 ratio.
The molecule B31 returned an ELISA_avg of 19.8 ratio.
